Reference: doi:10.1101/2024.10.01.616040 (bioRxiv, 2024)

B1: K3A/K4A-ORF1p (natural protein)
chain: MGAAQNRKTGNSKTQSASPPPKERSSSPATEQSWMENDFDELREEGFRRSNYSELREDIQTKGKEVENFEKNLEECITRITNTEKCLKELMELKTKARELREECRSLRSRCDQLEERVSAMEDEMNEMKREGKFREKRIKRNEQSLQEIWDYVKRPNLRLIGVPESDVENGTKLENTLQDIIQENFPNLARQANVQIQEIQRTPQRYSSRRATPRHIIVRFTKVEMKEKMLRAAREKGRVTLKGKPIRLTADLSAETLQARREWGPIFNILKEKNFQPRISYPAKLSFISEGEIKYFIDKQMLRDFVTTRPALKELLKEALNMERNNRYQPLQNHAKM
B2: ΔStammer-ORF1p (natural protein)
chain: MGKKQNRKTGNSKTQSASPPPKERSSSPATEQSWMENDFDELREEGFRRSNYSELREDIQTKGKEVENFEKNLEECITRITNTEKCLKELKTKARELREECRSLRSRCDQLEERVSAMEDEMNEMKREGKFREKRIKRNEQSLQEIWDYVKRPNLRLIGVPESDVENGTKLENTLQDIIQENFPNLARQANVQIQEIQRTPQRYSSRRATPRHIIVRFTKVEMKEKMLRAAREKGRVTLKGKPIRLTADLSAETLQARREWGPIFNILKEKNFQPRISYPAKLSFISEGEIKYFIDKQMLRDFVTTRPALKELLKEALNMERNNRYQPLQNHAKM

Key:
His-TEV-ORF1p (human) = His-TEV-ORF1p (human) (UniProt Q9UN81); assay: mass photometry
mass photometry = target: the molecule itself; assay: mass photometry

| Molecule | percent of counts that are monomers (His-TEV-ORF1p (human)) [%] | stoichiometry N (mass photometry) |
| --- | --- | --- |
| His-TEV-ORF1p (from UniProt Q9UN81 1-338) (natural protein) | 30 | – |
| B1 | – | 6 |
| B2 | – | 6 |
